How the values were obtained:
[1] = molecular target: Gly-C2-iLID; test: confocal imaging of light-induced recruitment to GUV membranes
[2] = molecular target: phosphorylated COPY^o2; test: other fluorescence titration
[3] = molecular target: COPY^o2 (Atto532-stathmin-Atto647N); test: other fluorescence titration

SspB (Stringent starvation protein B) (from UniProt P0AFZ3 1-165) (natural protein)
Kd [1]: 360 nM

α,β-tubulin dimers (from UniProt P02550 1-451; P02554 1-445) (complex)
k off,p-stath (1:1 phosphorylated stathmin-tubulin complex; site not named) [2]: 2.3 s⁻¹ | k on,p-stath (1:1 phosphorylated stathmin-tubulin complex; site not named) [2]: 1.8 s⁻¹ | KD, high affinity site [3]: 30 nM | KD, low affinity site [3]: 2000 nM | k off,stath (1:1 stathmin-tubulin complex; site not named) [3]: 0.048 s⁻¹ | k on,stath (1:1 stathmin-tubulin complex; site not named) [3]: 16 s⁻¹ | stoichiometry N [3]: 2
